Source: US20180371451A1 (BOARD OF TRUSTEES OF THE UNIVERSITY OF ILLINOIS, published 2018)

Experiments:
Experiment in all cases: specificity test of the expressed monobodies (method not named)
[1] = target: human Cyclin-Dependent Kinase 2 (human, UniProt P24941 1-298)
BSA = BSA (UniProt P02769 25-607)
CDC34 = target: T1, CDC34 (UniProt P49427 1-236, limits assumed)
T1 sequence (looked up): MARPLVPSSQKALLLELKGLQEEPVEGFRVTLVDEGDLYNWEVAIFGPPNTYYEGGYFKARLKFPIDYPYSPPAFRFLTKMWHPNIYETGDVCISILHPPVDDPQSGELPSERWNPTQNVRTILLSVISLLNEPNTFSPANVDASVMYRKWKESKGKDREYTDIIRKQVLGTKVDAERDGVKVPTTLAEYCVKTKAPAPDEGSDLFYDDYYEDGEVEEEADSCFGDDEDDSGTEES

Measured: binding result

BSA, sequence (P02769 25-607 limits assumed): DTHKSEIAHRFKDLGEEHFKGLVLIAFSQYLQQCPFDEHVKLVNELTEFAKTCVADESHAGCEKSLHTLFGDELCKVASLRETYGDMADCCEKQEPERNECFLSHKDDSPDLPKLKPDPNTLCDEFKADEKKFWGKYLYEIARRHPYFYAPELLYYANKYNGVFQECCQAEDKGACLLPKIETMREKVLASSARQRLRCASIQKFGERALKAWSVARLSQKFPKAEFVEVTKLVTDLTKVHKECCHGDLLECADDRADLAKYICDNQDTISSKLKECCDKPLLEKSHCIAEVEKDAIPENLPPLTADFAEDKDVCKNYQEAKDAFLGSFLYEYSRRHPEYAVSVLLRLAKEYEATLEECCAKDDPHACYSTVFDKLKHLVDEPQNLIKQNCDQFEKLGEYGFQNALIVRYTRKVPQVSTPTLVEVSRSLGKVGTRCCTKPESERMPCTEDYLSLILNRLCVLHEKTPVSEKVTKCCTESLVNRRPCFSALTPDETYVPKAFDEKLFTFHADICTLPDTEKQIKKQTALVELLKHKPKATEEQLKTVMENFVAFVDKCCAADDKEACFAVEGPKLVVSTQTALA

B1: anti-MAP2K5 FN3 monobody clone G4 (designed binder)
chain: MAVSDVPRKLEVVAATPTSLLISWDQDQVYYYRIRYGETGGNSPVQEFTVPGSKSTATISGLKPGVDYTITVYAVTGTSYAYIISINYRI
notes: FN3 (tenth type III domain of fibronectin) monobody from the PExSR selection; It was cloned into the pET14b-SUMO E. coli expression vector (SUMO fusion, purified on His60 resin) for characterisation; also called anti-MAP2K5 clone G4
no binding: [1] | BSA | CDC34

B2: anti-MAP2K5 FN3 monobody clone H1 (designed binder)
chain: MAVSDVPRKLEVVAATPTSLLISWDPYWFSGLYYRITYGETGGNSPVQEFTVPGSKSTATISGLKPGVDYTITVYAVTYYSWGYLVGEIISINYRI
notes: FN3 monobody from the PExSR selection; For the specificity test it was expressed as a SUMO fusion from pET14b-SUMO; also called Anti-MAP2K5 H1
no binding: [1] | BSA | CDC34
